# Patent publication US20090186824A1 (INIMEX PHARMACEUTICALS, published 2009)
# Bridges are numbered along the chain shown (N, C = ends). Where no end group is shown, it is not given here. [ ]: non-standard residue; d: D form.
# B1: SEQ ID NO 2 (peptide)
# peptide: Ac-KSRIVP-NH2
# B2: SEQ ID NO 62 (peptide)
# peptide: [code r][code r]VP-NH2
# modifications: not fully specified
# B3: SEQ ID NO 32 (peptide)
# peptide: CRIVPAC
# modifications: disulfide 1-7; not fully specified (C-terminus)
# Molecular target: dipeptidyl peptidase IV (DPPIV) in plasma of ICR mouse blood (mouse, UniProt P28843 37-760)
# Sequence (P28843 37-760 limits assumed): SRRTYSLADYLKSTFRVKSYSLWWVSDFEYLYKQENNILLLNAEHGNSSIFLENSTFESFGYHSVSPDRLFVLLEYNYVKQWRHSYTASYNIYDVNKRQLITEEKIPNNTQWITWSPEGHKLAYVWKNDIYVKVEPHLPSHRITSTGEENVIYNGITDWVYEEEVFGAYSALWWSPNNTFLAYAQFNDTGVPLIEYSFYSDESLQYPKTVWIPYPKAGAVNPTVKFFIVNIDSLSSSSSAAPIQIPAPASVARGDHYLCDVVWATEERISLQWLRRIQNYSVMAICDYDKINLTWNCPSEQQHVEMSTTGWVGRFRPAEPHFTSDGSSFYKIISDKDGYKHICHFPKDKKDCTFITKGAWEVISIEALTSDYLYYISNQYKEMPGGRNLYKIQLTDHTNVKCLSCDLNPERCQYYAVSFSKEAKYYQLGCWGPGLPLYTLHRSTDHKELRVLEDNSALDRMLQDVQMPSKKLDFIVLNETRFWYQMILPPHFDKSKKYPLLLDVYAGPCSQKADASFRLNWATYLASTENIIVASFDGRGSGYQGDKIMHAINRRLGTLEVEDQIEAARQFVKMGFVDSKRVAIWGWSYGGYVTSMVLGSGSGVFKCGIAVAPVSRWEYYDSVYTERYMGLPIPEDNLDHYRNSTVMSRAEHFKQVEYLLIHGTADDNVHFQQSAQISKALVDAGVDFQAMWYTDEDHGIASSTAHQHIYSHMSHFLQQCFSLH
# Test: cell-based or functional assay
row,% DPPIV Activity (Saline),Binder
1,93 % relative to saline control,B1
2,51 % relative to saline control,B2
3,30 % relative to saline control,B3
